We go through one molecule from patent publication US20220339270A1.

Assay [1] addresses Phospho_Tau441 (Tau441 phosphorylated in vitro by DYRK1A) (human), P10636. The experiment in a line: ELISA, PT3 immobilized, tau protein applied at 333 ng/mL. The following applies: remark: other sources report otherwise. (In general: An ELISA detects its analyte on a solid surface through an enzyme-linked reagent.)
The target of assay [2] is Tau441 (recombinant, not phosphorylated) (human), P10636. Described as above. As to conditions: remark: other sources report otherwise.
Sequence of Tau441 (recombinant, not phosphorylated) (human), P10636 (P10636 other isoform, or with tags, fused parts or gaps limits assumed): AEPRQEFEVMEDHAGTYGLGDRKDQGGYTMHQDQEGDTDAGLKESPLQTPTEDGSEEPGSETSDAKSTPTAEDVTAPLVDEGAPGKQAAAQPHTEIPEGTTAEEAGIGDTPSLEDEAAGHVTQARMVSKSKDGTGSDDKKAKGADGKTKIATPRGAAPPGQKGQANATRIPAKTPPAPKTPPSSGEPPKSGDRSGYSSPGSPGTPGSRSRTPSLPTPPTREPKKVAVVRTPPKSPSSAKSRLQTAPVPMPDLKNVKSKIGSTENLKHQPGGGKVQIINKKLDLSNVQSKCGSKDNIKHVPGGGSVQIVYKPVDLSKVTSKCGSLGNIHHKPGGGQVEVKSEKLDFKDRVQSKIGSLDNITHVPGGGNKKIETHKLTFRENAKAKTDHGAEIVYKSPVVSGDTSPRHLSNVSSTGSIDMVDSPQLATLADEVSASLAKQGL

Sequence of Phospho_Tau441 (Tau441 phosphorylated in vitro by DYRK1A) (human), P10636 (P10636 other isoform, or with tags, fused parts or gaps limits assumed): as above

B1: anti-tau antibody PT3 (antibody, V domains shown)
VH: EVKLVESGGDLVKPGGSLKLSCAASGFTFSSYAMSWVRQNPEKRLEWVASISKGGNTYYPNSVKGRFTISRDNARNILYLQMSSLRSEDTALYYCARGWGDYGWFAYWGQVTLVTVSA
VL: DIKMTQSPSSMYASLGERVTITCKASQDINRYLNWFQQKPGKSPKTLIYRANRLLDGVPSRFSGSGSGQDYSLTISSLDYEDMGIYYCLQYDEFPLTFGDGTKLELK
For the molecule B1, the OD450-570 amounted to 0.5 in assay [1] and 0 in assay [2].
